The values that follow come from US20140235698A1, “RNA Aptamer Specifically Binding to Carcinoembryonic Antigen and Use thereof” (POSCO, published 2014).

Data set [1] addresses DR5 cloned in the pVP16 vector as an activation-domain fusion (UniProt O14763). As to the kind of experiment: cell-based or functional assay.
Data set [2] has as its target T1, ACEA (CEA/CEACAM5 A1 domain to B3 domain, N domain deleted) (Homo sapiens, UniProt P06731 P06731:145-675). As to the kind of experiment: SPR; Biacore 2000; GROUP I member tested not specified (SEQ 1-12). The conditions noted are these: tags: pET28a(+), Ni-NTA (His), E. coli BL21. The procedure: (§1) To measure the affinity of RNA to CEA, SPR analysis was performed with Biacore 2000 (GE healthcare) device. Various concentrations of RNAs (GROUP 1, 2, 3 and library in FIG. 2) were flowed on NCEA and ACEA to measure the binding affinity.
(§2) The above value is measured using BIAevaluation program (which is used to analyze graph obtained from BIAcore device).

Data set [3] has as its target T2, NCEA (CEA/CEACAM5 N domain to B3 domain) (Homo sapiens, UniProt P06731 P06731:35-675). The data set is described as above. The settings on record: tags: pET28a(+), Ni-NTA (His), E. coli BL21. Here is the method: as §1, §2
Data set [4] concerns the target T1, ACEA (CEA/CEACAM5 A1 domain to B3 …). As to the kind of experiment: SPR; Biacore 2000. The settings on record: tags: pET28a(+), Ni-NTA (His), E. coli BL21. The procedure:
(§3) To measure the affinity of RNA aptamer to CEA, SPR analysis was performed with Biacore 2000 (GE healthcare) device. Various concentrations of RNAs (Trunc. GROUP 1-1 & 1-2 and Mutant GROUP 1-1 & 1-2, Loop-only, Library) were flowed on NCEA and ACEA to measure the binding affinity, which is shown in the following TABLE 4 and FIG. 4.
(In general: SPR reads the build-up and loss of mass on a sensor chip optically.)

The target in data set [5] is T2, NCEA (CEA/CEACAM5 N domain to B3 domain). The data set is described as follows: SPR; Biacore 2000; loop mutant, weakened or no binding per text. The settings on record: tags: pET28a(+), Ni-NTA (His), E. coli BL21. The procedure: as §3
Data set [6] has the same target. As to the kind of experiment: SPR; Biacore 2000. The settings on record: tags: pET28a(+), Ni-NTA (His), E. coli BL21; hairpin-loop (predicted). Here is the method:
as §3

Usually Kd stands for a measure of binding affinity in units of concentration.

T2 sequence (P06731 35-675, one chain of several): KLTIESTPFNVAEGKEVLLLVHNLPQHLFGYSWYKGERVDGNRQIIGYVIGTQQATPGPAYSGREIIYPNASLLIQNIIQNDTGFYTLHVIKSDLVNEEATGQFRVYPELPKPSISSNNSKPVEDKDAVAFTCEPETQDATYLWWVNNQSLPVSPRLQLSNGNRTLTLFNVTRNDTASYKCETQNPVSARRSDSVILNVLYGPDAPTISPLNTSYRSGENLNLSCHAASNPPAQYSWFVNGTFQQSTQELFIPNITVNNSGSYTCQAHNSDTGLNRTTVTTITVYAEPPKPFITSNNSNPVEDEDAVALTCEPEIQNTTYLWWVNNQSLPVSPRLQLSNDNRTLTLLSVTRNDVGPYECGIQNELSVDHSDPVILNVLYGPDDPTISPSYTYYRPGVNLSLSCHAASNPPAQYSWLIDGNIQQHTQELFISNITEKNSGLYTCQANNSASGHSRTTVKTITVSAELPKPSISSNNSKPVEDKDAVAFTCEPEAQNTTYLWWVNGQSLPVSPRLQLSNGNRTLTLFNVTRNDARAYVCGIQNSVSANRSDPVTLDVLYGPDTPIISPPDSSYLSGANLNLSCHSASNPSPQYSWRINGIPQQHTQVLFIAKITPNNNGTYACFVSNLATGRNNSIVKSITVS
T1 sequence (P06731 145-675, stated change not applied, one chain of several): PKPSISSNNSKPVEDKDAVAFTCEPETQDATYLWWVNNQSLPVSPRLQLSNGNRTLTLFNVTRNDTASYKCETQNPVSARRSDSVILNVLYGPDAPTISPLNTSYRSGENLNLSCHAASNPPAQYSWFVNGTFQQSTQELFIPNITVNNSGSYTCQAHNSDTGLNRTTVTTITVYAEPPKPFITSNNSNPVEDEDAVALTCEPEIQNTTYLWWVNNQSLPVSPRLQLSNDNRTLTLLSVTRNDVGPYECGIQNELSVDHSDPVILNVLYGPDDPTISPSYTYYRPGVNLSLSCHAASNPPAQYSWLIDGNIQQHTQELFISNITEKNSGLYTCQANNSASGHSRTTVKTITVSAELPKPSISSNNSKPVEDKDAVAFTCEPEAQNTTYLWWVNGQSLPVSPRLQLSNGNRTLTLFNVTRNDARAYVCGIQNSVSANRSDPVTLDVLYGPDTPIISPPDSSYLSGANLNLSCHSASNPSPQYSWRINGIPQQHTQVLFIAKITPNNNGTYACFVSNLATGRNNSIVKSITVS

With “NCEA (protein consisting of N domain to B3 domain of CEA, CEACAM5) cloned in the pM vector as a GAL4 DNA-BD fusion (from UniProt P04386 1-147; P06731 35-676)”, the SEAP activity in the medium of transfected cells (mammalian two-hybrid system) in data set [1] is 2.5 fold.

B1: GROUP I RNA aptamer (ssRNA)
RNA: GGGAGAGCGGAAGCGUGCUGGGCUAGAAUAAUAAUAAGAAAACCAGUACUUUCGUGUCCCGGGAGGGUGCAUAACCCAGAGGUCGAUGGAUCC
modifications: 2'-F pyrimidines (C and U)
Regarding B1, the Kd in data set [2] was determined as 3.22 nM; in data set [3] it was 0.313 nM.

B2: Mutant GROUP 1-1 (m19-1, mutant YJ-1) (ssRNA)
RNA: GCGGAAGCGUGCUGGGCUAGGGCGGCGGCGGGAAAACCAGUACUUUCGU
modifications: 2'-F pyrimidines (C and U)
In the case of B2, the Kd was found to be 790 nM in data set [4] and 1300 nM in data set [5].

B3: Truncated GROUP 1-1 (19-1, YJ-1) (ssRNA)
RNA: GCGGAAGCGUGCUGGGCUAGAAUAAUAAUAAGAAAACCAGUACUUUCGU
modifications: 2'-F pyrimidines (C and U)
On to B3, for which the Kd in data set [4] (hairpin-loop (predicted)) is 600 nM; in data set [6] it was 0.77 nM.

B4: Mutant GROUP 1-2 (m19-2) (ssRNA)
RNA: GUGCUGGGCUAGGGCGGCGGCGGGAAAACCAGUAC
modifications: 2'-F pyrimidines (C and U)
For B4, the Kd turned out to be 630 nM in data set [4] and 420 nM in data set [5].

B5: Loop only (ssRNA)
RNA: GGCUAGAAUAAUAAUAAGAAAAC
modifications: 2'-F pyrimidines (C and U)
B5 yielded a Kd in data set [4] of 1100 nM.

B6: Truncated GROUP 1-2 (19-2) (ssRNA)
RNA: GUGCUGGGCUAGAAUAAUAAUAAGAAAACCAGUAC
modifications: 2'-F pyrimidines (C and U)
In the case of B6, the Kd was 590 nM in data set [4] (hairpin-loop (predicted)) and 4 nM in data set [6].
